According to patent publication US20180155451A1 (published 2018):

B1: GpH7-A5/GpH7-B3 variant I332_01G/GpL16-k0 (antibody, human IgG1, kappa)
heavy 1: not shown
heavy 2: not shown
light: DIVMTQSPLSLPVTPGEPASISCQASESLVHSNRNTYLHWYLQKPGQSPQLLIYKVSNRFSGVPDRFSGSGSGTDFTLKISRVEAEDVGVYYCSQNTHVPPTFGQGTKVEIERTVAAPSVFIFPPSDEQLKSGTASVVCLLNNFYPREAKVQWKVDNALQSGNSQESVTEQDSKDSTYSLSSTLTLSKADYEKHKVYACEVTHQGLSSPVTKSFNRGEC
notes: also called He Ab I332_01G
B2: GpH7-A5/GpH7-B3 variant K334_01G/GpL16-k0 (antibody, human IgG1, kappa)
heavy 1: not shown
heavy 2: not shown
light: DIVMTQSPLSLPVTPGEPASISCQASESLVHSNRNTYLHWYLQKPGQSPQLLIYKVSNRFSGVPDRFSGSGSGTDFTLKISRVEAEDVGVYYCSQNTHVPPTFGQGTKVEIERTVAAPSVFIFPPSDEQLKSGTASVVCLLNNFYPREAKVQWKVDNALQSGNSQESVTEQDSKDSTYSLSSTLTLSKADYEKHKVYACEVTHQGLSSPVTKSFNRGEC
notes: also called He Ab K334_01G
B3: GpH7-A5/GpH7-B3 variant K334_09D/GpL16-k0 (antibody, human IgG1, kappa)
heavy 1: not shown
heavy 2: not shown
light: DIVMTQSPLSLPVTPGEPASISCQASESLVHSNRNTYLHWYLQKPGQSPQLLIYKVSNRFSGVPDRFSGSGSGTDFTLKISRVEAEDVGVYYCSQNTHVPPTFGQGTKVEIERTVAAPSVFIFPPSDEQLKSGTASVVCLLNNFYPREAKVQWKVDNALQSGNSQESVTEQDSKDSTYSLSSTLTLSKADYEKHKVYACEVTHQGLSSPVTKSFNRGEC
notes: also called He Ab K334_09D
B4: GpH7-A5/GpH7-B3 variant L234_20W/GpL16-k0 (antibody, human IgG1, kappa)
heavy 1: not shown
heavy 2: not shown
light: DIVMTQSPLSLPVTPGEPASISCQASESLVHSNRNTYLHWYLQKPGQSPQLLIYKVSNRFSGVPDRFSGSGSGTDFTLKISRVEAEDVGVYYCSQNTHVPPTFGQGTKVEIERTVAAPSVFIFPPSDEQLKSGTASVVCLLNNFYPREAKVQWKVDNALQSGNSQESVTEQDSKDSTYSLSSTLTLSKADYEKHKVYACEVTHQGLSSPVTKSFNRGEC
notes: also called He Ab L234_20W
B5: GpH7-A5/GpH7-B3 variant I332_06M/GpL16-k0 (antibody, human IgG1, kappa)
heavy 1: not shown
heavy 2: not shown
light: DIVMTQSPLSLPVTPGEPASISCQASESLVHSNRNTYLHWYLQKPGQSPQLLIYKVSNRFSGVPDRFSGSGSGTDFTLKISRVEAEDVGVYYCSQNTHVPPTFGQGTKVEIERTVAAPSVFIFPPSDEQLKSGTASVVCLLNNFYPREAKVQWKVDNALQSGNSQESVTEQDSKDSTYSLSSTLTLSKADYEKHKVYACEVTHQGLSSPVTKSFNRGEC
notes: also called He Ab I332_06M
B6: GpH7-A5/GpH7-B3 variant I336_02A/GpL16-k0 (antibody, human IgG1, kappa)
heavy 1: not shown
heavy 2: not shown
light: DIVMTQSPLSLPVTPGEPASISCQASESLVHSNRNTYLHWYLQKPGQSPQLLIYKVSNRFSGVPDRFSGSGSGTDFTLKISRVEAEDVGVYYCSQNTHVPPTFGQGTKVEIERTVAAPSVFIFPPSDEQLKSGTASVVCLLNNFYPREAKVQWKVDNALQSGNSQESVTEQDSKDSTYSLSSTLTLSKADYEKHKVYACEVTHQGLSSPVTKSFNRGEC
notes: also called He Ab I336_02A
B7: GpH7-A5/GpH7-B3 variant L234_07I/GpL16-k0 (antibody, human IgG1, kappa)
heavy 1: not shown
heavy 2: not shown
light: DIVMTQSPLSLPVTPGEPASISCQASESLVHSNRNTYLHWYLQKPGQSPQLLIYKVSNRFSGVPDRFSGSGSGTDFTLKISRVEAEDVGVYYCSQNTHVPPTFGQGTKVEIERTVAAPSVFIFPPSDEQLKSGTASVVCLLNNFYPREAKVQWKVDNALQSGNSQESVTEQDSKDSTYSLSSTLTLSKADYEKHKVYACEVTHQGLSSPVTKSFNRGEC
notes: also called He Ab L234_07I
B8: GpH7-A5/GpH7-B3 variant P238_09D/GpL16-k0 (antibody, human IgG1, kappa)
heavy 1: not shown
heavy 2: not shown
light: DIVMTQSPLSLPVTPGEPASISCQASESLVHSNRNTYLHWYLQKPGQSPQLLIYKVSNRFSGVPDRFSGSGSGTDFTLKISRVEAEDVGVYYCSQNTHVPPTFGQGTKVEIERTVAAPSVFIFPPSDEQLKSGTASVVCLLNNFYPREAKVQWKVDNALQSGNSQESVTEQDSKDSTYSLSSTLTLSKADYEKHKVYACEVTHQGLSSPVTKSFNRGEC
notes: also called He Ab P238_09D
B9: GpH7-A5/GpH7-B3 variant P238_10E/GpL16-k0 (antibody, human IgG1, kappa)
heavy 1: not shown
heavy 2: not shown
light: DIVMTQSPLSLPVTPGEPASISCQASESLVHSNRNTYLHWYLQKPGQSPQLLIYKVSNRFSGVPDRFSGSGSGTDFTLKISRVEAEDVGVYYCSQNTHVPPTFGQGTKVEIERTVAAPSVFIFPPSDEQLKSGTASVVCLLNNFYPREAKVQWKVDNALQSGNSQESVTEQDSKDSTYSLSSTLTLSKADYEKHKVYACEVTHQGLSSPVTKSFNRGEC
notes: also called He Ab P238_10E
B10: GpH7-A5/GpH7-B3 variant I336_03V/GpL16-k0 (antibody, human IgG1, kappa)
heavy 1: not shown
heavy 2: not shown
light: DIVMTQSPLSLPVTPGEPASISCQASESLVHSNRNTYLHWYLQKPGQSPQLLIYKVSNRFSGVPDRFSGSGSGTDFTLKISRVEAEDVGVYYCSQNTHVPPTFGQGTKVEIERTVAAPSVFIFPPSDEQLKSGTASVVCLLNNFYPREAKVQWKVDNALQSGNSQESVTEQDSKDSTYSLSSTLTLSKADYEKHKVYACEVTHQGLSSPVTKSFNRGEC
notes: also called He Ab I336_03V
B11: GpH7-A5/GpH7-B3 variant K326_08L/GpL16-k0 (antibody, human IgG1, kappa)
heavy 1: not shown
heavy 2: not shown
light: DIVMTQSPLSLPVTPGEPASISCQASESLVHSNRNTYLHWYLQKPGQSPQLLIYKVSNRFSGVPDRFSGSGSGTDFTLKISRVEAEDVGVYYCSQNTHVPPTFGQGTKVEIERTVAAPSVFIFPPSDEQLKSGTASVVCLLNNFYPREAKVQWKVDNALQSGNSQESVTEQDSKDSTYSLSSTLTLSKADYEKHKVYACEVTHQGLSSPVTKSFNRGEC
notes: also called He Ab K326_08L
B12: GpH7-A5/GpH7-B3 variant I336_18N/GpL16-k0 (antibody, human IgG1, kappa)
heavy 1: not shown
heavy 2: not shown
light: DIVMTQSPLSLPVTPGEPASISCQASESLVHSNRNTYLHWYLQKPGQSPQLLIYKVSNRFSGVPDRFSGSGSGTDFTLKISRVEAEDVGVYYCSQNTHVPPTFGQGTKVEIERTVAAPSVFIFPPSDEQLKSGTASVVCLLNNFYPREAKVQWKVDNALQSGNSQESVTEQDSKDSTYSLSSTLTLSKADYEKHKVYACEVTHQGLSSPVTKSFNRGEC
notes: also called He Ab I336_18N
B13: GpH7-A5/GpH7-B3 variant L234_04F/GpL16-k0 (antibody, human IgG1, kappa)
heavy 1: not shown
heavy 2: not shown
light: DIVMTQSPLSLPVTPGEPASISCQASESLVHSNRNTYLHWYLQKPGQSPQLLIYKVSNRFSGVPDRFSGSGSGTDFTLKISRVEAEDVGVYYCSQNTHVPPTFGQGTKVEIERTVAAPSVFIFPPSDEQLKSGTASVVCLLNNFYPREAKVQWKVDNALQSGNSQESVTEQDSKDSTYSLSSTLTLSKADYEKHKVYACEVTHQGLSSPVTKSFNRGEC
notes: also called He Ab L234_04F
B14: GpH7-A5/GpH7-B3 variant I336_06M/GpL16-k0 (antibody, human IgG1, kappa)
heavy 1: not shown
heavy 2: not shown
light: DIVMTQSPLSLPVTPGEPASISCQASESLVHSNRNTYLHWYLQKPGQSPQLLIYKVSNRFSGVPDRFSGSGSGTDFTLKISRVEAEDVGVYYCSQNTHVPPTFGQGTKVEIERTVAAPSVFIFPPSDEQLKSGTASVVCLLNNFYPREAKVQWKVDNALQSGNSQESVTEQDSKDSTYSLSSTLTLSKADYEKHKVYACEVTHQGLSSPVTKSFNRGEC
notes: also called He Ab I336_06M
B15: GpH7-A5/GpH7-B3 variant I336_08L/GpL16-k0 (antibody, human IgG1, kappa)
heavy 1: not shown
heavy 2: not shown
light: DIVMTQSPLSLPVTPGEPASISCQASESLVHSNRNTYLHWYLQKPGQSPQLLIYKVSNRFSGVPDRFSGSGSGTDFTLKISRVEAEDVGVYYCSQNTHVPPTFGQGTKVEIERTVAAPSVFIFPPSDEQLKSGTASVVCLLNNFYPREAKVQWKVDNALQSGNSQESVTEQDSKDSTYSLSSTLTLSKADYEKHKVYACEVTHQGLSSPVTKSFNRGEC
notes: also called He Ab I336_08L
B16: GpH7-A5/GpH7-B3 variant K326_07I/GpL16-k0 (antibody, human IgG1, kappa)
heavy 1: not shown
heavy 2: not shown
light: DIVMTQSPLSLPVTPGEPASISCQASESLVHSNRNTYLHWYLQKPGQSPQLLIYKVSNRFSGVPDRFSGSGSGTDFTLKISRVEAEDVGVYYCSQNTHVPPTFGQGTKVEIERTVAAPSVFIFPPSDEQLKSGTASVVCLLNNFYPREAKVQWKVDNALQSGNSQESVTEQDSKDSTYSLSSTLTLSKADYEKHKVYACEVTHQGLSSPVTKSFNRGEC
notes: also called He Ab K326_07I

What follows are binders tested against T1, FcγRIIIa extracellular domain with C-terminal His tag (human, UniProt P08637 17-208) (assay: SPR relative binding; GpH7-A5/GpH7-B3/GpL16-k0 = 100).
T1 construct: extracellular domain; also called FcgRIIIa; 3a; not shown: His tag at the C terminus
T1 sequence (P08637 17-208): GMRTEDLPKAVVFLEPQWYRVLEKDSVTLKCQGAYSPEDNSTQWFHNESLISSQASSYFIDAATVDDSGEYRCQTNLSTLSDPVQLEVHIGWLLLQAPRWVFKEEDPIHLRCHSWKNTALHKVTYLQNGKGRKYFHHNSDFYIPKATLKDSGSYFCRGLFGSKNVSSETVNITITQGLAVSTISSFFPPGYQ
Description: Analysis of interaction between objective antibody and the FcγR was carried out using Biacore T100 (GE Healthcare). HBS-EP+ (GE Healthcare) was used as the running buffer, and the measurement temperature was set to 25° C. Chips produced by immobilizing the antigen peptide by the amine coupling method to a Series S Sencor Chip CM5 (GE Healthcare), or alternatively, chips produced by allowing preliminarily biotinylated antigen peptides to interact with and immobilize onto a Series S Sensor Chip SA (certified) (GE Healthcare) were used. Antibodies of interest were captured onto an antigen peptide-immobilized chip, and allowed to interact to each FcγR diluted with running buffer. To regenerate and repeatedly use the chip, the antibodies captured on the chip were washed off by reacting 10 mM glycine-HCl, pH 1.5.
The FcγR-binding activity of each antibody was assessed primarily using as an indicator the FcγR-binding activity and dissociation constant for FcγR.
For B1, the He/Con_3a was 111 % of control. For B2, the He/Con_3a was 121 % of control. With B3 the He/Con_3a was 160 % of control. B4 was tested, and the He/Con_3a was 107 % of control. In the case of B5, the He/Con_3a is reported as 101 % of control. B6 was tested, and the He/Con_3a was 111 % of control. B7 was tested, and the He/Con_3a was 103 % of control. With B8 the He/Con_3a was 106 % of control. B9 was tested, and the He/Con_3a was 105 % of control. For B10, the He/Con_3a was 112 % of control. In the case of B11, the He/Con_3a is reported as 114 % of control. B12 was tested, and the He/Con_3a was 104 % of control. With B13 the He/Con_3a was 118 % of control. With B14 the He/Con_3a was 109 % of control. For B15, the He/Con_3a was 106 % of control. With B16 the He/Con_3a was 139 % of control.
